Source: article PMC12434095, “LysR-type transcriptional regulator CARR represses the expression of bla CAR-2 and reduces P. diazotrophicus resistance to cefalothin, cefuroxime and cefotaxime” (Frontiers in Cellular and Infection Microbiology, 2025)

Tests used:
Assay in all cases: purified protein
Type in all cases: biochemical, Phytobacter diazotrophicus
[1] = system: CO/N=C(\C(=O)N[C@@H]1C(=O)N2C(C(=O)O)=C(COC(N)=O)CS[C@H]12)c1ccco1; conditions: 50 mM HEPES pH 7.5, 25°C, 50 µM ZnSO4, 1.27 µM enzyme
[2] = system: CO/N=C(\C(=O)N[C@@H]1C(=O)N2C(C(=O)O)=C(COC(C)=O)CS[C@H]12)c1csc(N)n1; conditions: 50 mM HEPES pH 7.5, 25°C, 50 µM ZnSO4, 0.634 µM enzyme, kcat 0.61 in source
[3] = system: CC(=O)OCC1=C(C(=O)O)N2C(=O)[C@@H](NC(=O)Cc3cccs3)[C@H]2SC1; conditions: 50 mM HEPES pH 7.5, 25°C, 50 µM ZnSO4, 0.634 µM enzyme

Q: What does the source list for CAR-2 (Phytobacter diazotrophicus)?
A: Km [1]: 49.28 µM; Vmax [1]: 16.2 µM/min; kcat [1]: 0.21 s⁻¹; kcat/Km [1]: 4260 M⁻¹ s⁻¹; Km [2]: 33.08 µM; Vmax [2]: 23.4 µM/min; kcat [2]: 0.62 s⁻¹; kcat/Km [2]: 18700 M⁻¹ s⁻¹; Km [3]: 63.78 µM; Vmax [3]: 31.8 µM/min; kcat [3]: 0.84 s⁻¹; kcat/Km [3]: 13200 M⁻¹ s⁻¹
